{"source": "a protein production outcome set (Wang et al. 2014)", "test": "label from the status in PepcDB records"}
{"sequence": "MALKSHLRACSRPFPRQIGRMRRRNKSLPAAFVSKRLSVLIISRKPEMKALTCMAVLAALVTGSAFAQTPPQTSTRKVDGTDNVYIFRYGGHQSMFVVTPKGVIATDPISYLRPAKPYIDAIKAVTDQPIKYVVYSHHHYDHIAGGQPFKDLGATFIAHRRTKERLLELKKQNALLADVVMPDQVVDDKKSITLGGTTLELNYVGRNHSDNSLVMRLPKEKIVFVVDFAPIESVQFRNIPDNVSPLEYIASLKKLASLDWERMIPGHPNAGGRLGTKKDVEDDIAYMEDLSAEVKKAADAGKCIDTAMKEVKLPKYEKWANYETALPANVERFCYWWGRGY", "values": [{"measurement": "protein production", "value": "failed"}]}
{"sequence": "MHAFPLTLDNRLAEALPLWRNLARTDRAPRRNIDLADWKADWRELIAALDRFSRSHGYRQPFAAQGHAALENAWAWGQAAENASTLLLKAIDRGLAGAELRSIYLETAALWLDYSRLLGAARDSLREQGEVDFETAPALAPRTGQYPFALQLLAMGVLLDAQELIPALVEEVLQFDTDRLLDYLGAAALGLTSASEETFHPRPFGQLRAFFEEADGSDAQALAPYLQSQYREFFQLSPKAQKKTRRLTGPYAWGWWAMEVSALGVLYGWDDGVLRASPHYLGDLVDYARARGDA", "values": [{"measurement": "protein production", "value": "not failed"}]}
{"sequence": "MTDQRFKIVFSGELMPDASLETVKDNLARLFKSEPGKIDALFGGRPVVLKRELPEAEAERYLTALRQAGANAYKEVDLAASLSLVETPDHNPQVAEETPAQDLPPMTCPKCGHEQPSGAECSACGVIIEKYLARQAQLGENAAPAATAAAGASPYTPPSAQVGDTLPEFGELNVFTTNGRIGRLRYLGWSMAMTLCFLVIMGLGFLLGETVGVAVTALASIAFIVIAVMIGVQRLHDLGWSGWLWLLNFVPFVGSVFGILMLVLPGSTGANRYGPPPPANSTGVKVLASLIILLPIVGIIAAIALPSYQGYLERANYDGGASAPADPYTTDEQAAAAAAEADEAATAAAEAMEDDDQQ", "values": [{"measurement": "protein production", "value": "failed"}]}
{"sequence": "MQDELVILSSIASIMVAIIVLILFYIEKIRTYVGVFFVYFSLTMMIAMFVGASIYLLYPSRVSLAIAFGINTFIMIPLIAYFLLKIAKLANTPFRGERTHVVIFSILLVLNEILMGTTFGIAQFGFSRFSNLYYSLYFSINSYWFFYPMMAEMLALYLLHYLKGSINRELFPLIGLATFPPTAFDYQEWFYSALIFSLAFSILGSILSKRLWRYVYLMLILSELILLINAIPYDIAIAISMILYYYQSLLPLRR", "values": [{"measurement": "protein production", "value": "failed"}]}
{"sequence": "MQLITFLHEFIKHPKHTGAIAPSSKILAKKMVDVIDFNKAKCIVELGPGTGVFTKEIMKRKKKETIFLLIEINEVFFKELKRKFKDEQNVIVVHGSAENIKKYMGEHNIECIDYVLSGLPFTSLPEEVSKRILNNAMEAIHENGEFITFQYSLVKKGFIQHFFPEITLEKVWLNFPPAYVFSCKKELRRAYA", "values": [{"measurement": "protein production", "value": "failed"}]}
{"sequence": "MSGGPVKTPFLSFIIPAYNEEQRLPSYLERVIGFFAGQSYSFEIVVVDDGSSDGTAALVKALMAQHSCLRLEALDRNRGKGFAVKTGMSAAKGQLRVFADADGATPVEEIRRLLDAREQGADIAIGSRAMRSDECIVQGRVHRKIMGTVFNGLIRALAVRGIHDSQCGFKLFTASAAEDIFPRQRITGFGFDVELLFLARRLGYVVVEVPVNWSDVEGTKVRLVRDSFRMLGEVLRIRFTNLTGGYGDIPGKTLEHHHHHH", "values": [{"measurement": "protein production", "value": "failed"}]}
{"sequence": "MDYKVSVLIVCYNQEKYIKKALESVLSQKVNFNYEIVVCDDCSSDRTFNILQEYKSKLGSKLNLIRNYKNLGITLNYKNGFKNCKGEYIAVLEGDDYWIQKSKLKRQVSFLESNRDCSLVFNKIVLDYGDEKINNLIYPFNDIRKKFSARELVRSNFIQNFSCCMYRKSSIRKLRESIYDMVVYDWMFNMAVAQFGLIGYIPNYMTSHRILKSGLWSGKSKMENLQMISKCIDQYDSFFKYKYRKEFSQNKQEVLQALRRLVMVNENGLEHHHHHH", "values": [{"measurement": "protein production", "value": "not failed"}]}
{"sequence": "MEVKIEKPTPEKLKELSVEKWPIWEKEVSEFDWYYDTNETCYILEGKVEVTTEDGKKYVIEKGDLVTFPKGLRCRWKVLEPVRKHYNLF", "values": [{"measurement": "protein production", "value": "not failed"}]}
{"sequence": "MMYSKFISFLKQIPLPICGLILGLISLGNLLYSKGYPILGNSYDMLGLFLMFLILLKIVLAMKHTISTLNDPIVASVSPTFTMSLMVLSVFLKRLSGFSLLANVTWWTALILHLILMMYFIYLHVLPKELKIHDVYPSWFITFVGIGVISATSPDFGLEVGKVVVWITLLFYFILLPIVMHRVFILRKMHKSLLPLITIITAPGSLGLVGYLTVVEAKSKIFVIFLFILSQAIYFITLGLLTKLLRSAFYPSYAAFTFPLVISATAVNLTSKLSVFQFLNLELLANMEILIAIAIVTYVLIRYCIFLGSKLVQIMSEKYSPESI", "values": [{"measurement": "protein production", "value": "failed"}]}
{"sequence": "MASYAELFDIGEDFAAFVGHGLATEQGAVARFRQKLESNGLPSALTERLQRIERRYRLLVAGEMWCPDCQINLAALDFAQRLQPNIELAIISKGRAEDDLRQRLALERIAIPLVLVLDEEFNLLGRFVERPQAVLDGGPQALAAYKAGDYLEHAIGDVLAIIEGAAR", "values": [{"measurement": "protein production", "value": "not failed"}]}
{"sequence": "MALMTNKTRALLIGGHGKVALLATPMLIDASVQVTSMYRNPDHRSEIEALGATTLERDVTTLSVEDWADLLKDFDVVVWSAGNGGKNGADATYAIDRDAAIASIDGAASLGEKAPRYIMVSYIGSSTHTIDPSASFYPYAESKKAADEHLSSTNLDYLILAPAALTLDEVNGVEVIADTNEAAAGRTTSRVLVAEVITEFVVRDFPQTRVLPFVDGESPVSSIS", "values": [{"measurement": "protein production", "value": "failed"}]}
{"sequence": "PCYDNTFANTCAECQQLIGHDSRELFYEDRHFHEGCFRCCRCQRSLADEPFTCQDSELLCNDCYCSAFS", "values": [{"measurement": "protein production", "value": "not failed"}]}
{"sequence": "MPMSFSLTQMILISAAYLAVLFGVAWISERGMIPRSIIRHPLTYTLSLGVYASAWAFYGTVGLAYQYGYGFLSSYLGVSGAFLLAPVLLYPILKITRTYQLSSLADLFAFRFRSTWAGALTTIFMLIGVLPLLALQIQAVADSIGILTHEPVQHRVALSFCALITLFTIFFGSRHIATREKHEGLVFAIAFESVIKLIAIGGVGLYALYGVFDGPQQLELWLLQNQTALAALHTPLQEGPWRTLLLVFFASAIVMPHMYHMTFTENLNPRALVSASWGLPLFLLLMSLAVPLILWAGLKLGATTNPEYFTLGIGIAANSPALALLAYVGGLSAASGLIIVTTLALSGMALNHLVLPLYQPPAEGNIYRWLKWTRRALIVAIIMAGYAFYLLLGAEQDLANLGIVAFVATLQFLPGVLSVLYWPTANRRGFIAGLLAGILVWLVTMLLPLIGNLQGFYIPLLNMIYVLDDTSWHMAAIASLAANVLMFTLISLFTNASTEEASAAEACAVDNVRRPQRRELHAASPQEFATQLAKPLGAKAAQKEVEQALRDLYLPFDERRPYALRRLRDRIEANLSGLMGPSVAQDMVETFLPYKAGGENYVTEDIHFIESRLEDYHSRLTGLAAELDALRRYHRQTLQELPMGVCSLAKDQEILMWNKAMEELTGIPAQHVVGSRLSTITNPWKDLLQGFINLPDEHLHKQHLALDGQTRWLNLHKAAIDEPLAPGNSGLVLLVEDLTETQTLEDKLVHSERLASIGRLAAGVAHEIGNPITGIACLAQNLREEREEDGELTEISEQILEQTKRISRIVQSLMSFAHAGSHQHNDEAVCLAEVAQDAIGLLALNRRNFEVQFFNLCDPDHWVDGDPQRLAQVLINLLSNARDASPPGSAVRVKSEAFEHTVDLIVEDEGSGIPKNIMDRLFEPFFTTKDPGEGTGLGLALVYSIVEEHYGQITIDSPADPQSQRGTRIRVTLPRHVEATSAVN", "values": [{"measurement": "protein production", "value": "failed"}]}
{"sequence": "MTESDRDQEASMREVVIVKSTPQRGKFNAFAELVGKLVSETRDFPGCLGAYLMLAPERNEQVVMHIWETPDALEAYLTWRADRGDFLEINEYLEVEQDFKTYQLA", "values": [{"measurement": "protein production", "value": "not failed"}]}
{"sequence": "MLFSSIVFLFYFFPAVLLLYYICSFSRRLQNVVLLFASLVFYAWGDFSFLGIMIVSIIINYILGLLVGKFREKKLLAKFFIFVTCAYNLGMLFVFKYLGFVVKNIDKVGNYKLSIPNIALPIGISYFTFKAISYVVDVYKNKVEAEKNPLNIGLYIAFFPEVISGPISRYVKVGEQIKNREHSWQKFSVGACRFITGLGKKVLISNSVSIIADKVFTMNTNGPVPVTLAWLGSIAYTIQIFFDFSGYSDMVIGLGLMFGFKIDENFNYPYISKSITEFWRRWHISLSSWFRDYIYIPLGGSRVDNKDKLIRNLFIVWVSTGVWHGAEWTFIMWGFLNFVFIALEKVFSFDDLKINPVIKHIYALFIINLGWVLFRSENLIQAGKYVACMFGLRGNAFWSNYTFMFVKENAVIFIAAVILSMPIAKKVNKLVYDKVPGYKILNGVYPIAVLGVFFVCISYLIKGTYNPFIYLKF", "values": [{"measurement": "protein production", "value": "failed"}]}
{"sequence": "TELQAVTGRAEIAGERLKLLYDAGLGIGTTLDVLRTADELAQVAVPRFADFVTVDLADAVLHGEEPAPTATDLRRTAVCGIRDDHPLYELGQLIDFLPSTPQARGYGSGYSELVTDLSTATGWHAQDPERTKAIIDYGIHSLIAAPIQARGVVLGMANFWRSKQHEPFVEEEMSLAEELVARAAVSIDNARRYTREHALAVTLQRSLLPRALP", "values": [{"measurement": "protein production", "value": "failed"}]}
{"sequence": "MKVSVIIPTYNERENLEELFSRIDNALQGLNYEIVVVDDDSPDRTWEKAQELSSKYPVKVIRRTKEKGLSSAVIRGFKEASGDVFVVMDADLQHPPEVIPKLIEAIKNGSDIAIGSRYVKGGKVENWPFYRKLISKGAIMVGRIALPKIRDIKDPVSGFFALRKEVVEGVELNPIGFKILMEILIKGKYSKVVEVPFTFGIRARGESKLKGKTIFEYLRHIYRLMKWEGEIDRIVKFSIVGLSGILVNEGFLWLFVNLGIPKEIAVIPAVELSILNNFFWNDIWTFKDIRRGSIFSRLLKFHIAALSGAVVNFIVYWILLFLGIHYLIANLVGIVLSFGVRYVINRHVTWAT", "values": [{"measurement": "protein production", "value": "failed"}]}
{"sequence": "MGDSMSLDWDKLRIFHAAAEAGSFTHAADKLHLSQSAISRQVSSLEQDVGIKLFHRHARGLILTEQGEMLYRTAHDVLMKLESVKAQLSETTDKPSGKLRITTTVGLGQGWLTDKIQEFMSLYPEIQVQLILDNEELDVNMRHADCAIRLRQPQQSDLIQRKLFTVHMHVYAAPSYINKYGEPQSLDDLDNHRIITFGEPAPNYLLDVNWLEIAGRDSDNPRISHLQINSQTSIKRACLLGIGIAMLPDYIVGRDPGLIQLPISADIPSFDTYFCYPDELKNAAKLKVFRDYIVAKARNWNF", "values": [{"measurement": "protein production", "value": "failed"}]}
{"sequence": "MSTKLYYIYDPMCSWCWGYRPVWDLLQQHLPKSIDVEYVAGGLAPDSDSAMPIDQQQMIQNHWRTIEQKLGTKFNYDFWRENTARRSTYNACRAAIAAHKQSCQKAMIDAIQQAYYLRALNPSDVDVLVSVAKELSEQTSPTLDVAQFIVDINSSETNKELAKQVTLARELTQQGFPSLVLDVDGVIQQIPLDYSDYKTTLAYIIKKTS", "values": [{"measurement": "protein production", "value": "failed"}]}
{"sequence": "MILDEKNRKNLVFLILQFFDEEGYEESLHLLEQDSGVFFDFSYLSNAILNGNWKDADDYLSAFTSPEANTFSRKMFFGLFKSGGSEAVKIFSKDLRRIPVLKDDSFDDLVEVIAETCCVDKAPGRAKLCVDLHKLAESNPSLRGKLDFPSLNKSALLALISLLCPNCSRRKGGLKEDLICLILQFLYEAKYKNTLHKLEQETKVFFNLNYLAEVMKLGEYGKAEEYLGAFTNWEDNKYSKAMFLELQKLICLQSTEWEVATPSGSLDNMSLKIKLHASVAMLAKKNPVLKDELKFPSMEKSRLLTLVKQTMDWWTCNNTSSLENVPVVSYLCGTPSSMKFFFKKTVPRKKKPNEIKDPSQCNALVLPDCFSEEKIARLTYSPSGDYILALAEDATHKLWTWSSSQNEFCKPRLHQPQSGKTMENEMATSVQKSTSCFAVKGSYLFSTSGGKIAVFDLKNFEKVASFGSPTPMATYFIFIPGDLLAVGLDDGSIFIHCLSSRKVKEKLEGHDQKITCLAFSRCFNVLVSSDSDGKLCLWSTKSWVKLTSKNSTRKFCNRSNLESTSLVTHIQFDPYQIELLVVHDGWIGLYEVRTLDCRLQWIPDASDPAITSATYSSDGEIIYVGFRCGSIKIVDSKTFMTLCQINLTSFTQLSTSNISLEVYPTVVAAHPSHPNQISAGLSNGKVIVLQPLWSGGWGEAAPLEDNGDYSNDSDHSY", "values": [{"measurement": "protein production", "value": "failed"}]}
